The results in this text go back to the supplement of paper PMC9112550, “Optimization of the antimicrobial peptide Bac7 by deep mutational scanning” (BMC Biology, 2022).

For this data set, the system named is Escherichia coli TOP10. As to the kind of experiment: shrunken log2 fold change of peptide-encoding DNA abundance (4.5 h post-induction vs induction); higher = less antimicrobial activity (less host growth inhibition). To be noted: time post-induction: 4.5 h; library: site-saturation at positions 5, 18, 19, 20.
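Also: peptides expressed intracellularly from a pBAD plasmid library in pooled LB shake-flask culture, induced with 0.3% L-arabinose, DNA abundance read by NGS, three biological replicates, DESeq2 with apeglm shrinkage.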

With RRIRVRPPRLPRPRPRPEKYPRP, the “shrunken log2 fold change” value is -0.171.
Regarding RRIRPRPPRLPRPRPRPSMYPRP, the “shrunken log2 fold change” value is -0.676.
Consider RRIRGRPPRLPRPRPRPTNFPRP, for which the “shrunken log2 fold change” value is -0.0941.
With RRIRQRPPRLPRPRPRPYYIPRP the figure was -0.657.
For RRIRTRPPRLPRPRPRPYWHPRP the value was -0.4.
RRIRQRPPRLPRPRPRPSQHPRP: the “shrunken log2 fold change” value is -0.356.
Turning to RRIRHRPPRLPRPRPRPYDNPRP, the “shrunken log2 fold change” value was -0.0737.
For RRIRWRPPRLPRPRPRPDMVPRP, the “shrunken log2 fold change” value was 0.0298.
Consider RRIRKRPPRLPRPRPRPDCNPRP, for which the “shrunken log2 fold change” value is -0.00139.
In the case of RRIRARPPRLPRPRPRPTQRPRP, the “shrunken log2 fold change” value was 0.915.
Take RRIRARPPRLPRPRPRPWTVPRP: the “shrunken log2 fold change” value was -0.0846.
On to RRIRRRPPRLPRPRPRPPSCPRP, for which the “shrunken log2 fold change” value turned out to be 0.301.
Turning to RRIRCRPPRLPRPRPRPWRVPRP, the “shrunken log2 fold change” value was 0.149.
With RRIRDRPPRLPRPRPRPHFNPRP the figure was -0.381.
Turning to RRIRCRPPRLPRPRPRPNSAPRP, the “shrunken log2 fold change” value worked out at 0.0338.
With RRIRPRPPRLPRPRPRPFQNPRP the figure was -0.445; with RRIRKRPPRLPRPRPRPPNEPRP, 1.68; with RRIRQRPPRLPRPRPRPQQEPRP, 0.0811.
In the case of RRIRKRPPRLPRPRPRPVGRPRP, the “shrunken log2 fold change” value was determined as 0.21.
On to RRIRKRPPRLPRPRPRPCPRPRP, for which the “shrunken log2 fold change” value worked out at 0.163.
For RRIRVRPPRLPRPRPRPHRAPRP the value was 0.101; for RRIRSRPPRLPRPRPRPEVNPRP, 0.426.
On to RRIRQRPPRLPRPRPRPGKNPRP, for which the “shrunken log2 fold change” value was -0.294.
Turning to RRIRWRPPRLPRPRPRPMTAPRP, the “shrunken log2 fold change” value amounted to 0.473.
As for RRIRFRPPRLPRPRPRPQEFPRP, the “shrunken log2 fold change” value was found to be 0.0412.
For RRIRFRPPRLPRPRPRPCFGPRP the value was -0.0611; for RRIRFRPPRLPRPRPRPVALPRP, -0.128; for RRIRMRPPRLPRPRPRPGISPRP, 0.0451.
As to RRIRGRPPRLPRPRPRPTFNPRP, the “shrunken log2 fold change” value is 0.31.
For RRIRWRPPRLPRPRPRPSLKPRP the value was 0.0451.
For RRIRIRPPRLPRPRPRPTDYPRP the value was -0.223; for RRIRERPPRLPRPRPRPLYGPRP, -0.136.
With RRIRYRPPRLPRPRPRPIFWPRP, the “shrunken log2 fold change” value was determined as 0.0187.
With RRIRPRPPRLPRPRPRPPETPRP the figure was 0.407; with RRIRTRPPRLPRPRPRPDSVPRP, -0.0144.
For RRIRSRPPRLPRPRPRPKEWPRP the value was -0.0193; for RRIRDRPPRLPRPRPRPKDQPRP, -0.111; for RRIRYRPPRLPRPRPRPQFCPRP, -0.0677.
With RRIRMRPPRLPRPRPRPHRKPRP, the “shrunken log2 fold change” value amounted to 0.0879.
For RRIRARPPRLPRPRPRPQYSPRP the value was -0.0321; for RRIRIRPPRLPRPRPRPFRYPRP, -0.42; for RRIRSRPPRLPRPRPRPSHAPRP, -0.449.
Consider RRIRLRPPRLPRPRPRPRVQPRP, for which the “shrunken log2 fold change” value is -0.143.
RRIRYRPPRLPRPRPRPMTGPRP: the “shrunken log2 fold change” value amounted to 0.0192.
RRIRFRPPRLPRPRPRPYRTPRP: the “shrunken log2 fold change” value is -0.165.
For RRIRGRPPRLPRPRPRPCTKPRP, the “shrunken log2 fold change” value was determined as 0.235.
Turning to RRIRRRPPRLPRPRPRPRWVPRP, the “shrunken log2 fold change” value worked out at 0.407.
With RRIRDRPPRLPRPRPRPRKSPRP, the “shrunken log2 fold change” value is -0.0168.
As to RRIRHRPPRLPRPRPRPTDTPRP, the “shrunken log2 fold change” value was -0.116.
With RRIRSRPPRLPRPRPRPVWHPRP, the “shrunken log2 fold change” value is 0.182.
